Experiment [1] concerns the target T1, Bacillus stearothermophilus DnaB helicase (B. stearothermophilus, UniProt Q9X4C9 1-454).
T1 sequence (looked up): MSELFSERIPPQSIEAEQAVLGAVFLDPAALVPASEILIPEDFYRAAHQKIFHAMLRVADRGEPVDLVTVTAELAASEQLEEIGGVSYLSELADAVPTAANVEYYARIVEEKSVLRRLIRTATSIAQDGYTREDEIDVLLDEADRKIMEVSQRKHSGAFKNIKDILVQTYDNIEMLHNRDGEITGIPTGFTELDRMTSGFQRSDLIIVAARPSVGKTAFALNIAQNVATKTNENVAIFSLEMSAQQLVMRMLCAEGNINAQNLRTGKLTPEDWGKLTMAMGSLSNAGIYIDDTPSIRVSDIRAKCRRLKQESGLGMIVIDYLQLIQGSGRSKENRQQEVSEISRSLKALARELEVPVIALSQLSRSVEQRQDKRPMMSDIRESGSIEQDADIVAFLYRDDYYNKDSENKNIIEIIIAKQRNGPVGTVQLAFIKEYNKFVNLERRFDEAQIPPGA
The experiment in a line: SPR.

Experiment [2] has as its target T1, Bacillus stearothermophilus DnaB …. The experiment in a line: SPR. The source holds these as a separate data set.

Like-named read-outs stand apart in the source and are kept apart here. Where no end group is shown, it is not given here. The star is where a group is joined. Biotin = O=C1N[C@H]2[C@H](CS[C@H]2CCCCC(=O)*)N1

B1: N-terminally biotinylated DnaI-N-peptide (DnaI residues 1-18, preceded by biotin-Ser-Gly) (peptide)
peptide: Biotin-SGMEPIGRSLQGVTGRPDFQ
B1 showed a Kd in experiment [1] of at least 50 µM.

B2: DnaI-N106 (N-terminal 106 residues of B. subtilis DnaI) (domain or fragment, UniProt P06567 1-106, looked up)
chain: MEPIGRSLQGVTGRPDFQKRLEQMKEKVMKDQDVQAFLKENEEVIDQKMIEKSLNKLYEYIEQSKNCSYCSEDENCNNLLEGYHPKLVVNGRSIDIEYYECPVKRK
In the case of B2, in experiment [2], the dissociation constant (Kd) was 18.5 µM and the “stoichiometry N” value was 1.8 molecules per Bst DnaB subunit.

B3: DnaI-N123 (residues 1-123 of B. subtilis DnaI) (domain or fragment, UniProt P06567 1-123, looked up)
chain: MEPIGRSLQGVTGRPDFQKRLEQMKEKVMKDQDVQAFLKENEEVIDQKMIEKSLNKLYEYIEQSKNCSYCSEDENCNNLLEGYHPKLVVNGRSIDIEYYECPVKRKLDQQKKQQSLMKSMYIQ
Regarding B3, in experiment [2], binding was characterised by a dissociation constant (Kd) of 7.3 µM and the “stoichiometry N” value is 1.7 molecules per Bst DnaB subunit.

B4: unmodified peptide corresponding to residues 1-18 of DnaI (peptide)
peptide: MEPIGRSLQGVTGRPDFQ
B4 displayed a Kd in experiment [2] above 140 µM.

B5: DnaI-N132 (residues 1-132 of B. subtilis DnaI, C-terminal His6) (domain or fragment, UniProt P06567 1-132, looked up)
chain: MEPIGRSLQGVTGRPDFQKRLEQMKEKVMKDQDVQAFLKENEEVIDQKMIEKSLNKLYEYIEQSKNCSYCSEDENCNNLLEGYHPKLVVNGRSIDIEYYECPVKRKLDQQKKQQSLMKSMYIQQDLLGATFQ
Take B5: in experiment [2], the affinity, expressed as Kd, was 0.65 µM and the “stoichiometry N” value is 0.8 molecules per Bst DnaB subunit.
